{"source": "patent US9265844B2", "about": "“Protease degradable polypeptides and uses thereof” (THE METHODIST HOSPITAL SYSTEM, priority 2010, dated 2016)", "key": {"HeLa cells": {"test_system": "HeLa cells", "experiment": "Live cell imaging by fluorescence microscopy", "format": "cell-based, human", "details": "compared with 5L AuNPs", "protocol": "Fluorescence images of live cells were acquired using a fluorescence microscopy system (Olympus, Tokyo, Japan). Briefly, HeLa and MDA-MB231 cells were collected by trypsinization, counted, and plated in a 96-well black clear-bottom culture plate (Corning Life Sciences, Pittston, Pa.) at a density of 1×10^3 cells per well. After 1 day, AuNPs (2.52×10^8 particles) were added and incubated for 12 hours. Cells were then washed three times with PBS and cultured in phenol red-free medium and imaged with a fluorescence microscopy at the time points indicated. In a separate set of experiment, cells were treated with CellTrackers, CM-DiI (2 μM), or CMTMR (7.5 μM, Invitrogen). One day after cell seeding, HeLa and MDA-MB231 cells were incubated with CM-DiI for 5 minutes at 37° C. and then further incubated at 4° C. for an additional 15 minutes according to manufacturer's protocol. After removing the medium, the cells were then incubated for an additional 15 minutes at 4° C. For CMTMR study, cells were incubated with CMTMR for 30 minutes at 37° C. and the medium was then replaced with fresh medium and incubated for a further 30 minutes. After labeling with CM-DiI or CMTMR, cells were washed three times with PBS and cultured in phenol red-free medium and imaged under a fluorescence microscopy as indicated."}, "Jurkat cells": {"test_system": "Jurkat cells", "experiment": "Fluorescence retention, flow cytometry", "format": "cell-based", "details": "day 4", "protocol": "Jurkat cells (1.0×10^6 cells) were seeded in a 12-well culture plate (BD Falcon, San Jose, Calif.) together with 5L AuNPs (1.26×10^9 particles) in 400 μl RPMI 1640 medium and cultured for 24 hours in the dark at 37° C. in a 5% CO2 atmosphere. Cells (4×10^5) were then transferred to a FACS tube after three washes with PBS, and the FITC fluorescence signal inside the cells was measured using a BD LSR II flow cytometry (BD Biosciences, San Jose, Calif.). Remaining cells were cultured in 6-well culture plates (BD Falcon) in 4 ml RPMI 1640 medium. The procedure was repeated at different time points, up to 21 days. In a separate set of experiments, Jurkat cells (1.0×10^6) were incubated with CM-DiI (1 μM) or CMTMR (2 μM) following the manufacturer's instructions. On the designated day, the fluorescence signal of CM-DiI or CMTMR was measured using a PE filter set by a BD LSR II flow cytometry."}, "Cath E [1]": {"molecular_target": "T1, Cath E (Mus musculus, UniProt P70269)", "T1 construct": "from tissue; host or cells: pancreas, PDAC tumours and PanIN lesions of GEMMs (cLGL-KRasG12V/Bac-Ela-CreER; p53 conditional deletion/LSL-KrasG12D/Pdx1-Cre)", "T1 sequence (P70269 60-397)": "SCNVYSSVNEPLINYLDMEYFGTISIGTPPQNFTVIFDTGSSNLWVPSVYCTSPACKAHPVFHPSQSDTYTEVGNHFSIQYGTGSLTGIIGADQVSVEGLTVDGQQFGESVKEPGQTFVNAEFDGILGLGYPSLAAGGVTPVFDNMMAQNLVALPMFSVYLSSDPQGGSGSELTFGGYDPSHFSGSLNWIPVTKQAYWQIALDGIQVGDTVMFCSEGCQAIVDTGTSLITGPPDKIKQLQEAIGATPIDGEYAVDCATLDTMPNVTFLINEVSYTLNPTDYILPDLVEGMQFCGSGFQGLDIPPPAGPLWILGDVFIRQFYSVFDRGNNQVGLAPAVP", "experiment": "Ex vivo NIRF imaging of GEMM PDAC tumors", "format": "in vivo", "protocol": "To assess whether Cath E activity served as a biomarker for in vivo imaging, studies were performed in human pancreatic cancer xenografts in immunodeficient mice (acquired from the National Cancer Institute with age of the mice ranging from 5-6 weeks old) and transgenic mice. Animals were housed at the MD Anderson Cancer Center animal facility. Mice used for optical imaging studies were fed with a chlorophyll-free diet. Genetic PanINs and PDAC mouse models were developed by crossing cLGL-KRas^G12V with Bac-Ela-CreER mice as described previously (Ji et al., Gastroenterology 137:1072-82 (2009)). These animals developed PanINs at 2 months and PDAC by ˜6 months. […] PDAC in these mice developed in 6-8 weeks after birth (Bardeesy et al., Proc. Natl. Acad. Sci. USA 103:5947-52 (2006)). Littermates without PDAC served as controls. LSL-KRas^G12D, p53 floxed, and Pdx-1-Cre genetic mice were obtained from the Mouse Models for Human Cancer Consortium Repository (Rockville, Md.).\nSubcutaneous models (human material PDAC tumor grafts with mice bearing 2 tumors each n=4, MDA PATC-3 orthotopic model n=3, MPanc96 expressing low levels of Cath E (MPanc96-FG30) n=10, and MPanc96 expression high levels of Cath E (Mpanc96-Cath E) n=10) and two transgenic models with litter controls (n=5 each) were used to assess the usefulness of the Cath E-activatable imaging probe. Animals were injected with a single dose of the optical imaging probe (1 nmol/100 μl PBS) or saline (controls) intravenously through tail vein using a 30 gauge syringe needle. The anesthetized mice were placed in the heated imaging platform of IVIS-100/Spectrum optical imaging systems (Xenogen/Caliper, Mountain View, Calif.). White light and near infrared fluorescence (NIRF) images were acquired sequentially using Cy5.5 fluorescence filters (615-665 nm excitation filter and 695-770 nm emission filter). Mice were imaged 48 hours post probe intravenous injection. Mice were sacrificed and organs/tissues were excised and rinsed with PBS then imaged for their associated NIRF. Fluorescence variations between different organs/tissues were corrected by subtracting the autofluorescence signals obtained from imaging organs/tissues of mice without any probe injected. General illumination setting and image acquisition parameters were: epi-illumination; 0.5 sec. exposure time; f/stop=2; binning (HR)4; field of view (FOV=12.9 cm or 6.5 cm width and height). The mean fluorescence flux from each image was defined as photons per second per centimeter squared per steradian (p/s/cm^2/sr). Acquired images were analyzed using Living Image 3.1 software (Xenogen/Caliper, Alameda, Calif.). Fluorescence contrast, defined as radiance, was quantified using identical size regions of interest (ROI)."}, "Cath E [2]": {"molecular_target": "T1, Cath E", "experiment": "Ex vivo NIRF imaging of GEMM pancreas with PanIN lesions", "format": "in vivo", "details": "48 hours after probe injection, 2 months old mice", "protocol": "To assess whether Cath E activity served as a biomarker for in vivo imaging, studies were performed in human pancreatic cancer xenografts in immunodeficient mice (acquired from the National Cancer Institute with age of the mice ranging from 5-6 weeks old) and transgenic mice. Animals were housed at the MD Anderson Cancer Center animal facility. Mice used for optical imaging studies were fed with a chlorophyll-free diet. Genetic PanINs and PDAC mouse models were developed by crossing cLGL-KRas^G12V with Bac-Ela-CreER mice as described previously (Ji et al., Gastroenterology 137:1072-82 (2009)). These animals developed PanINs at 2 months and PDAC by ˜6 months. […]\n(§1) Subcutaneous models (human material PDAC tumor grafts with mice bearing 2 tumors each n=4, MDA PATC-3 orthotopic model n=3, MPanc96 expressing low levels of Cath E (MPanc96-FG30) n=10, and MPanc96 expression high levels of Cath E (Mpanc96-Cath E) n=10) and two transgenic models with litter controls (n=5 each) were used to assess the usefulness of the Cath E-activatable imaging probe. […] White light and near infrared fluorescence (NIRF) images were acquired sequentially using Cy5.5 fluorescence filters (615-665 nm excitation filter and 695-770 nm emission filter). […] The mean fluorescence flux from each image was defined as photons per second per centimeter squared per steradian (p/s/cm^2/sr). […]"}, "Cath E [3]": {"molecular_target": "T2, Cath E (Homo sapiens, UniProt P14091)", "T2 sequence (P14091 54-396)": "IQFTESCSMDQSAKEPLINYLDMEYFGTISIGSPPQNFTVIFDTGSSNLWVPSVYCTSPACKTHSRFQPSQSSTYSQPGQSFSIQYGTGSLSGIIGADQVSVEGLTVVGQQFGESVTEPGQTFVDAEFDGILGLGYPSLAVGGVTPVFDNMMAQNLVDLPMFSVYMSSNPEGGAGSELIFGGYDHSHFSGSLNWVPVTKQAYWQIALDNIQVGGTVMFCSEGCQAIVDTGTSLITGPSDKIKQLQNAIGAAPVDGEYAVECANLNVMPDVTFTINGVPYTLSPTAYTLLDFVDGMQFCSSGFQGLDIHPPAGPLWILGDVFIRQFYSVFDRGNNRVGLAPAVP", "experiment": "In vivo NIRF imaging of primary patient tumor grafts in mice", "set-up": "endogenous in cells; host or cells: primary patient PDAC tumour grafts (subcutaneous) and MDA PATC-3 orthotopic tumours in immunodeficient mice", "details": "48 hours after iv probe, immunodeficient mice", "protocol": "Human cancer specimens used for transplantation as primary tumor grafts were obtained from patients with pancreatic invasive ductal adenocarcinoma who had undergone initial surgical resection at UT MD Anderson Cancer Center (Kim et al., Nat. Protoc. 4:1670-80 (2009)). Nude mice were anesthetized with a single intraperitoneal injection of ketamine (100 mg/kg) and xylazine (10 mg/kg). After washing with sterile PBS, tumor fragments were placed in the subcutaneous space of immunodeficient mice (Kim et al., Nat. Protoc. 4:1670-80 (2009)). When the tumor was visible, it was dissected out and transplanted into male nude mice and allowed to grow for 30 days. […]\nas §1"}, "Cath E [4]": {"molecular_target": "T2, Cath E", "experiment": "Ex vivo NIRF imaging of MDA PATC-3 orthotopic tumors in mice", "set-up": "endogenous in cells; host or cells: primary patient PDAC tumour grafts (subcutaneous) and MDA PATC-3 orthotopic tumours in immunodeficient mice", "details": "organs excised, 48 hours after iv probe", "protocol": "To establish orthotopic tumors, mice were anesthetized as described above, and the pancreas was exposed through a left abdominal incision (laparotomy). Subconfluent MDA PATC-3 cells were detached with 0.25% trypsin-EDTA and cell viability was assessed by trypan blue exclusion. Cells (1×10^6) were resuspended in 50 uL of Hanks Balanced Salt Solution (HBSS) and directly injected into the pancreas (caudal). After tumor implantation, the pancreas was carefully returned to the peritoneal cavity and the abdomen was closed. Two months after tumor implantation, fluorescent probe was injected via tail vein and imaged 48 hours after injection.\nas §1, with “Fluorescence variations between different organs/tissues were corrected by subtracting the autofluorescence signals obtained” for “The mean fluorescence flux”, “imaging organs/tissues of mice without any probe injected.” for “each image was defined as photons per second per centimeter squared per steradian (p/s/cm^2/sr).”"}, "[5]": {"test_system": "firefly luciferase in MDA-MB231-luc2 cells", "experiment": "Luciferase gene silencing, bioluminescence", "format": "cell-based, human", "details": "5 days, same conditions", "protocol": "For the examination of the gene silencing effect, bioluminescence measurement was performed after incubating with various multilayered AuNPs. Cells were seeded in a 96-well black clear bottom culture plate at a density of 2.5×10^3 (or 1.25×10^4 of LNCaP-luc2) cells per well. One day later, different sRAuNP (1.26×10^8 particles) were added to each well and cultured for an additional 24 hours. The cells were further cultured in phenol red free medium for another 5 days. Manufacturer's direction was followed for the transfection with Lipofectamine. Bioluminescence measurement was performed using IVIS 200 (Caliper) immediately after addition of 125 μg mL^−1 of D-Luciferin (Regis)."}}, "note": "No end group written: not given here. d = 2'-deoxy (DNA); r = 2'-OH (RNA)"}
{"compound": "CCCCCCCCCCCCCCCCCCN1C(=CC=CC2=[N+](CCCCCCCCCCCCCCCCCC)c3ccccc3C2(C)C)C(C)(C)c2cc(CNC(=O)c3ccc(CCl)cc3)ccc21.[Cl-]", "note": "[CM-DiI]", "values": [{"measurement": "signal strength", "setting": "HeLa cells", "value": "much weaker than that of the 5L AuNPs"}, {"measurement": "fluorescence intensity, % of the original intensity", "setting": "Jurkat cells", "value": 8, "unit": "%"}]}
{"compound": "Cath E-activatable imaging probe: Cy5.5-labeled Ala-Gly-Phe-Ser-Leu-Pro-Ala-Gly-CysCONH2 (SEQ ID NO:29) loaded on D-polyethylene glycol protected grafted copolymer (DPGC) (AGFSLPAGC-NH2; also: Cy5.5 label, place not given here, loaded on D-polyethylene glycol protected grafted copolymer (DPGC))", "values": [{"measurement": "increase in fluorescence in pancreas tumors compared to normal pancreas", "setting": "Cath E [1]; 48 hours after 1 nmol probe iv, pooled GEMMs", "value": "~15", "unit": "fold"}, {"measurement": "tumor to non-tumor signal ratio, tumor/bone", "setting": "Cath E [1]; 48 hours after probe", "value": 2.6}, {"measurement": "tumor to non-tumor signal ratio, tumor/kidney", "setting": "Cath E [1]; 48 hours after probe", "value": 1.9}, {"measurement": "tumor to non-tumor signal ratio, tumor/lung", "setting": "Cath E [1]; 48 hours after probe", "value": 2.9}, {"measurement": "tumor to non-tumor signal ratio, tumor/muscle", "setting": "Cath E [1]; 48 hours after probe", "value": 5.5}, {"measurement": "tumor to non-tumor signal ratio, tumor/normal pancreas", "setting": "Cath E [1]; 48 hours after probe", "value": 2.2}, {"measurement": "tumor to non-tumor signal ratio, tumor/small intestine", "setting": "Cath E [1]; 48 hours after probe", "value": 1.7}, {"measurement": "tumor to non-tumor signal ratio, tumor/spleen", "setting": "Cath E [1]; 48 hours after probe", "value": 3.9}, {"measurement": "increase in fluorescence in pancreas with PanIN lesions compared to normal pancreas", "setting": "Cath E [2]", "value": "~3", "unit": "fold"}, {"measurement": "fluorescence signal at subcutaneous patient tumor grafts", "setting": "Cath E [3]", "value": "strong specific fluorescence signal localized to the implanted tumor grafts"}, {"measurement": "fluorescence signal at orthotopic primary cell tumors", "setting": "Cath E [4]", "value": "strong signal specifically localized to the tumors in the pancreas"}]}
{"compound": "Free unformulated siRNA: siRNA against luciferase, SEQ ID NO:17/18, unformulated (chain 1 CGUACGCGGAAUACUUCGATT; chain 2 UCGAAGUAUUCCGCGUACGTT; sugars from the 5' end r19 d2, backbone not given here)", "values": [{"measurement": "silencing effect", "setting": "[5]", "value": "didn't show any appreciable effect"}]}
